The values that follow come from article PMC10786891, “Massively parallel profiling of RNA-targeting CRISPR-Cas13d”.

Sequences and labels used below:
T1: EsCas13d, nuclease-dead (Eubacterium siraeum, UniProt B0MS50, R295A;H300A;R849A;H854A)
T1 sequence: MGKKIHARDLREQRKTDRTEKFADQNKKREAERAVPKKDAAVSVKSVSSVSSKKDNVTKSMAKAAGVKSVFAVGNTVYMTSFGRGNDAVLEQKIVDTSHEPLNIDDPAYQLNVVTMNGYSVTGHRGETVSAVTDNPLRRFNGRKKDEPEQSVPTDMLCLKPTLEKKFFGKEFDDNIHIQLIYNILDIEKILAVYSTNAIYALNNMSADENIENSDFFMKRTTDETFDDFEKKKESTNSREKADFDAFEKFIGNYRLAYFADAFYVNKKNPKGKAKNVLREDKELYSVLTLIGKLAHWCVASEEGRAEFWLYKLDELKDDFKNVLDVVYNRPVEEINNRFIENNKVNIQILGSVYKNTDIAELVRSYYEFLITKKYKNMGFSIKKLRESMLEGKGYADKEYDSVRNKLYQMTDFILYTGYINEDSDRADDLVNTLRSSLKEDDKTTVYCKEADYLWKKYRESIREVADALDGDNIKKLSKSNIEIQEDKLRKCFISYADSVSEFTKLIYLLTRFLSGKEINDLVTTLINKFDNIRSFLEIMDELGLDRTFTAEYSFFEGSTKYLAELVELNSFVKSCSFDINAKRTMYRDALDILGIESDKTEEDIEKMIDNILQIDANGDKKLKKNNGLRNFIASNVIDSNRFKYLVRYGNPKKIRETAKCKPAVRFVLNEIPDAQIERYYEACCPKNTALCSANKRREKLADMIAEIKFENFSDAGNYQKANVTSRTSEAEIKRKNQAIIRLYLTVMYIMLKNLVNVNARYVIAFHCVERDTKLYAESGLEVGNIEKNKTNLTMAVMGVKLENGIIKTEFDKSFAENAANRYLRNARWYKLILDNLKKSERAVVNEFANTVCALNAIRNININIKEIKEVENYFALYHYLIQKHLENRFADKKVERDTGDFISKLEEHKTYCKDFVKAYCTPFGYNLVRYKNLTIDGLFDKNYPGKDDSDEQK

B1: target 1 insU 3' of 20,insG 3' of 8 (mixed)
RNA 1: CACCCGUGCAAAAAUGCAGGGGUCUAAAACUGAGCGGAUAACCUCUCUAUGG
RNA 2: GGGAAUGGAUCCACAUCUACGAAUUCGUACCAUUAGAGAGGUUAUGCCGCUCACCGAGAUCGGAAGAGCACACGU
B2: target 1 C4G,G5C (mixed)
RNA 1: CACCCGUGCAAAAAUGCAGGGGUCUAAAACUGAGCGGAUAACCUCUCUAUGG
RNA 2: GGGAAUGGAUCCACAUCUACGAAUUCGUACCAUAGAGAGGUUAUCCCGUCACCGAGAUCGGAAGAGCACACGU
B3: target 1 insG 3' of 21 (mixed)
RNA 1: CACCCGUGCAAAAAUGCAGGGGUCUAAAACUGAGCGGAUAACCUCUCUAUGG
RNA 2: GGGAAUGGAUCCACAUCUACGAAUUCGUACCGAUAGAGAGGUUAUCCGCUCACCGAGAUCGGAAGAGCACACGU
B4: target 1 U11C,G13A (mixed)
RNA 1: CACCCGUGCAAAAAUGCAGGGGUCUAAAACUGAGCGGAUAACCUCUCUAUGG
RNA 2: GGGAAUGGAUCCACAUCUACGAAUUCGUACCAUAGAGAAGCUAUCCGCUCACCGAGAUCGGAAGAGCACACGU
B5: target 1 A9C,G12U (mixed)
RNA 1: CACCCGUGCAAAAAUGCAGGGGUCUAAAACUGAGCGGAUAACCUCUCUAUGG
RNA 2: GGGAAUGGAUCCACAUCUACGAAUUCGUACCAUAGAGAGUUUCUCCGCUCACCGAGAUCGGAAGAGCACACGU
B6: target 1 C2A,U11G (mixed)
RNA 1: CACCCGUGCAAAAAUGCAGGGGUCUAAAACUGAGCGGAUAACCUCUCUAUGG
RNA 2: GGGAAUGGAUCCACAUCUACGAAUUCGUACCAUAGAGAGGGUAUCCGCUAACCGAGAUCGGAAGAGCACACGU
B7: target 1 insG 3' of 14,insU 3' of 4 (mixed)
RNA 1: CACCCGUGCAAAAAUGCAGGGGUCUAAAACUGAGCGGAUAACCUCUCUAUGG
RNA 2: GGGAAUGGAUCCACAUCUACGAAUUCGUACCAUAGAGAGGGUUAUCCGCUUCACCGAGAUCGGAAGAGCACACGU
B8: target 1 G5A,A16C (mixed)
RNA 1: CACCCGUGCAAAAAUGCAGGGGUCUAAAACUGAGCGGAUAACCUCUCUAUGG
RNA 2: GGGAAUGGAUCCACAUCUACGAAUUCGUACCAUAGCGAGGUUAUCCACUCACCGAGAUCGGAAGAGCACACGU
B9: target 1 insA 3' of 21,insA 3' of 2 (mixed)
RNA 1: CACCCGUGCAAAAAUGCAGGGGUCUAAAACUGAGCGGAUAACCUCUCUAUGG
RNA 2: GGGAAUGGAUCCACAUCUACGAAUUCGUACCAAUAGAGAGGUUAUCCGCUCAACCGAGAUCGGAAGAGCACACGU
B10: target 1 insC 3' of 20,insG 3' of 16 (mixed)
RNA 1: CACCCGUGCAAAAAUGCAGGGGUCUAAAACUGAGCGGAUAACCUCUCUAUGG
RNA 2: GGGAAUGGAUCCACAUCUACGAAUUCGUACCACUAGAGGAGGUUAUCCGCUCACCGAGAUCGGAAGAGCACACGU
B11: target 1 insG 3' of 22,insG 3' of 2 (mixed)
RNA 1: CACCCGUGCAAAAAUGCAGGGGUCUAAAACUGAGCGGAUAACCUCUCUAUGG
RNA 2: GGGAAUGGAUCCACAUCUACGAAUUCGUACGCAUAGAGAGGUUAUCCGCUCGACCGAGAUCGGAAGAGCACACGU
B12: target 1 insC 3' of 15,insU 3' of 12 (mixed)
RNA 1: CACCCGUGCAAAAAUGCAGGGGUCUAAAACUGAGCGGAUAACCUCUCUAUGG
RNA 2: GGGAAUGGAUCCACAUCUACGAAUUCGUACCAUAGAGCAGGUUUAUCCGCUCACCGAGAUCGGAAGAGCACACGU
B13: target 1 insU 3' of 21,insU 3' of 18 (mixed)
RNA 1: CACCCGUGCAAAAAUGCAGGGGUCUAAAACUGAGCGGAUAACCUCUCUAUGG
RNA 2: GGGAAUGGAUCCACAUCUACGAAUUCGUACCUAUAUGAGAGGUUAUCCGCUCACCGAGAUCGGAAGAGCACACGU
B14: target 1 insU 3' of 22,insU 3' of 7 (mixed)
RNA 1: CACCCGUGCAAAAAUGCAGGGGUCUAAAACUGAGCGGAUAACCUCUCUAUGG
RNA 2: GGGAAUGGAUCCACAUCUACGAAUUCGUACUCAUAGAGAGGUUAUCUCGCUCACCGAGAUCGGAAGAGCACACGU
B15: target 1 insC 3' of 15,insA 3' of 11 (mixed)
RNA 1: CACCCGUGCAAAAAUGCAGGGGUCUAAAACUGAGCGGAUAACCUCUCUAUGG
RNA 2: GGGAAUGGAUCCACAUCUACGAAUUCGUACCAUAGAGCAGGUAUAUCCGCUCACCGAGAUCGGAAGAGCACACGU
B16: target 1 del5,del11 (mixed)
RNA 1: CACCCGUGCAAAAAUGCAGGGGUCUAAAACUGAGCGGAUAACCUCUCUAUGG
RNA 2: GGGAAUGGAUCCACAUCUACGAAUUCGUACCAUAGAGAGGUAUCCCUCACCGAGAUCGGAAGAGCACACGU
B17: target 1 insA 3' of 21,insC 3' of 1 (mixed)
RNA 1: CACCCGUGCAAAAAUGCAGGGGUCUAAAACUGAGCGGAUAACCUCUCUAUGG
RNA 2: GGGAAUGGAUCCACAUCUACGAAUUCGUACCAAUAGAGAGGUUAUCCGCUCACCCGAGAUCGGAAGAGCACACGU
B18: target 1 insC 3' of 20,insU 3' of 20 (mixed)
RNA 1: CACCCGUGCAAAAAUGCAGGGGUCUAAAACUGAGCGGAUAACCUCUCUAUGG
RNA 2: GGGAAUGGAUCCACAUCUACGAAUUCGUACCACUUAGAGAGGUUAUCCGCUCACCGAGAUCGGAAGAGCACACGU
B19: target 1 insU 3' of 20,insU 3' of 14 (mixed)
RNA 1: CACCCGUGCAAAAAUGCAGGGGUCUAAAACUGAGCGGAUAACCUCUCUAUGG
RNA 2: GGGAAUGGAUCCACAUCUACGAAUUCGUACCAUUAGAGAUGGUUAUCCGCUCACCGAGAUCGGAAGAGCACACGU
B20: target 1 insG 3' of 10,insA 3' of 4 (mixed)
RNA 1: CACCCGUGCAAAAAUGCAGGGGUCUAAAACUGAGCGGAUAACCUCUCUAUGG
RNA 2: GGGAAUGGAUCCACAUCUACGAAUUCGUACCAUAGAGAGGUUGAUCCGCAUCACCGAGAUCGGAAGAGCACACGU
B21: target 1 U3G,C7G (mixed)
RNA 1: CACCCGUGCAAAAAUGCAGGGGUCUAAAACUGAGCGGAUAACCUCUCUAUGG
RNA 2: GGGAAUGGAUCCACAUCUACGAAUUCGUACCAUAGAGAGGUUAUGCGCGCACCGAGAUCGGAAGAGCACACGU
B22: target 1 C7G,A16C (mixed)
RNA 1: CACCCGUGCAAAAAUGCAGGGGUCUAAAACUGAGCGGAUAACCUCUCUAUGG
RNA 2: GGGAAUGGAUCCACAUCUACGAAUUCGUACCAUAGCGAGGUUAUGCGCUCACCGAGAUCGGAAGAGCACACGU
B23: target 1 insC 3' of 17,insU 3' of 7 (mixed)
RNA 1: CACCCGUGCAAAAAUGCAGGGGUCUAAAACUGAGCGGAUAACCUCUCUAUGG
RNA 2: GGGAAUGGAUCCACAUCUACGAAUUCGUACCAUAGCAGAGGUUAUCUCGCUCACCGAGAUCGGAAGAGCACACGU
B24: target 1 U8A,U11C (mixed)
RNA 1: CACCCGUGCAAAAAUGCAGGGGUCUAAAACUGAGCGGAUAACCUCUCUAUGG
RNA 2: GGGAAUGGAUCCACAUCUACGAAUUCGUACCAUAGAGAGGCUAACCGCUCACCGAGAUCGGAAGAGCACACGU
B25: target 1 insG 3' of 19,insU 3' of 2 (mixed)
RNA 1: CACCCGUGCAAAAAUGCAGGGGUCUAAAACUGAGCGGAUAACCUCUCUAUGG
RNA 2: GGGAAUGGAUCCACAUCUACGAAUUCGUACCAUGAGAGAGGUUAUCCGCUCUACCGAGAUCGGAAGAGCACACGU
B26: target 1 insG 3' of 10,insU 3' of 2 (mixed)
RNA 1: CACCCGUGCAAAAAUGCAGGGGUCUAAAACUGAGCGGAUAACCUCUCUAUGG
RNA 2: GGGAAUGGAUCCACAUCUACGAAUUCGUACCAUAGAGAGGUUGAUCCGCUCUACCGAGAUCGGAAGAGCACACGU
B27: target 1 insG 3' of 21,insC 3' of 9 (mixed)
RNA 1: CACCCGUGCAAAAAUGCAGGGGUCUAAAACUGAGCGGAUAACCUCUCUAUGG
RNA 2: GGGAAUGGAUCCACAUCUACGAAUUCGUACCGAUAGAGAGGUUACUCCGCUCACCGAGAUCGGAAGAGCACACGU

The data set has as its target T1, EsCas13d, nuclease-dead. The data set can be described thus: crRNA (strand 1, pre-loaded); Mg2+; 40 mM Tris-HCl pH 7.5, 150 mM NaCl, 6 mM MgCl2, 1 mM DTT, 0.1% Tween-20, 0.2 mg/ml BSA; 25 C; 10 min per concentration, then washed. As to conditions: tags: His6-TwinStrep-SUMO cleaved; N-terminal SNAP kept (SNAP-Surface 488); label: 3' end held by stalled T7 RNA polymerase.
B1 showed a Kd of 0.0204 ± 0.0016 µM.
B2 had a Kd of 0.0157 ± 0.001 µM.
The molecule B3 had a Kd of 0.067 ± 0.01 µM.
For B4 the value was 0.0087 ± 0.0013 µM.
As for B5, the Kd came to 0.0193 ± 0.0012 µM.
For B6 the value was 0.0166 ± 0.001 µM.
The molecule B7 showed a Kd of 0.0117 ± 0.0011 µM.
In turn, B8 gave a Kd of 0.057 ± 0.012 µM. This Kd is about 4.9-fold higher than that of the molecule before.
For B9 the value was 0.0177 ± 0.001 µM; for B10, 0.0118 ± 0.0009 µM.
For B11 the value was 0.038 ± 0.005 µM; for B12, 0.0146 ± 0.0009 µM; for B13, 0.052 ± 0.005 µM.
B14 displayed a Kd of 0.043 ± 0.004 µM.
For B15 the value was 0.079 ± 0.018 µM; for B16, 0.03 ± 0.0015 µM.
Regarding B17, binding was put at a Kd of 0.0137 ± 0.0007 µM.
B18 showed a Kd of 0.0183 ± 0.0009 µM.
As for B19, binding was characterised by a dissociation constant (Kd) of 0.053 ± 0.021 µM.
Molecule B20 returned a Kd of 0.035 ± 0.005 µM.
Take B21: the Kd turned out to be 0.00604 ± 0.00033 µM.
B22 gave a Kd of 0.063 ± 0.006 µM. This Kd lies about 10-fold higher than the previous one.
On to B23, for which the Kd stood at 0.057 ± 0.006 µM.
For B24 the value was 0.0126 ± 0.0009 µM.
For B25 the value was 0.057 ± 0.013 µM; for B26, 0.0247 ± 0.0017 µM.
For B27 the value was 0.083 ± 0.016 µM.

As a reminder, the Kd is the concentration at which binding is half-saturated. A high value points to weaker binding.
